Patent US20080132679A1 (KANEKA, published 2008)
Blank lines part the entries; values can stand above or below the binder they belong to.

Target: T1, Recombinant Human Insulin Receptor (28-956) (human, UniProt P06213 28-956)
T1 construct: range 28-956; Bought soluble receptor used as the analyte; also called soluble insulin receptor; SIR
Experiment: SPR (BIAcore), peptide immobilized on CM5 by amine coupling, SIR as analyte 0.781-100 nM
Protocol: The ligand was immobilized on the sensor chip CM5 research grade (Biacore AB) by the amine coupling method. Thus, the peptide mentioned above was dissolved in 20 mM carbonate buffer (pH 8.5) (500 μg/ml), and 100 μl of the solution was passed through the flow cell at a flow rate of 5 μl/min. The amount of the peptide immobilized was 200 RU (resonance units).
Recombinant Human Insulin Receptor (28-956) (GT/TECHNE Corp.) was used as the analyte soluble insulin receptor (SIR). To 50 mg in a vial was added HBS-EP buffer (250 ml) for thorough dissolution ([…]), and the solution was 10-fold diluted to give a 100 nM solution. Eight concentration levels from 100 nM to 0.781 nM were prepared by subsequent repetitions of doubling dilution, and measurements were carried out using HBS-EP buffer (10 mM HEPES pH 7.4, 0.15M NaCl, 3 mM EDTA, 0.005% Surfactant P20) (Biacore AB) as a running solution; the rate of flow was 10 μl/min. A sensorgram was thus obtained.
Recombinant Human Insulin Receptor (28-956) (GT/TECHNE Corp.) was used as the analyte SIR. Eight concentration levels from 100 nM to 0.781 nM were prepared by subsequent repetitions of doubling dilution, which was started from diluting 100 nM solution, and measurements were carried out using HBS-EP buffer as a running solution; the rate of flow was 10 μl/min. A sensorgram was thus obtained.

Kd: 24 µM
B1: peptide P15 (peptide)
peptide: CASDIVEGIYL
notes: Chemically synthesized; immobilized on a CM5 sensor chip by amine coupling (130 RU) for the Biacore assay; also called Peptide 15

Kd: 1.6 µM
B2: peptide P14 (peptide)
peptide: CASDIVEGLYIVLAER
notes: Chemically synthesized by the Fmoc method; immobilized on a CM5 sensor chip by amine coupling (200 RU) for the Biacore assay; also called Peptide 14

Kd: 12 µM
B3: peptide P21 (peptide)
peptide: CQHILGSDIVEGIYL
notes: Chemically synthesized; immobilized on a CM5 sensor chip by amine coupling (270 RU) for the Biacore assay; also called Peptide 21
